We go through 1 substance from paper PMC3530167.

The target of the assay is HLA-DM wild type, biotinylated at a BirA site on the C-terminus of DMα (human) (UniProt P28067). The assay is described as follows: SPR.
Sequence of UniProt P28067 (P28067 27-261, chain 1 of 2): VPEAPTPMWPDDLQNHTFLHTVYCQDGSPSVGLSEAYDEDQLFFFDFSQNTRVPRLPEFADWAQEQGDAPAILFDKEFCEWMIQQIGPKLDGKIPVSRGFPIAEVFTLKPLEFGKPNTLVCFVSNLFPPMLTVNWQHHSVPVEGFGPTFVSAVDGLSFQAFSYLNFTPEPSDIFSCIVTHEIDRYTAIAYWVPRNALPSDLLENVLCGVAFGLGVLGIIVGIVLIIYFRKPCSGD
Sequence of UniProt P28067 (P28068 19-263, chain 2 of 2, further chain): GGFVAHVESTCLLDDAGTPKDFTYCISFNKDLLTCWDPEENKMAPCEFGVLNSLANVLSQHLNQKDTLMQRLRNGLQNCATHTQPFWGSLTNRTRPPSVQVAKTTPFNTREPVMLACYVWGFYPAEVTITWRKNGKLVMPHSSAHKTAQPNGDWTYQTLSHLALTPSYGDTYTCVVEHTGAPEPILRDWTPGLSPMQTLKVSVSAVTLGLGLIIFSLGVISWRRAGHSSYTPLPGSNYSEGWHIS

In turn, “HLA-DR1 with a covalently linked, N-terminally truncated HA-like peptide (P2 to P11) (peptide-MHC)” yielded a fold lower affinity at pH 6.5 than at pH 5.5 of 3 fold.
